Results on one molecule are retold here after US20260139048A1 (NANJING LEGEND BIOTECH, published 2026).

Where only a bound is given, the exact number is not on record here.

Experiment [1] addresses T1, His-tagged cynomolgus TIGIT (cynomolgus, UniProt A0A7N9I9V4 89-209).
T1 construct: SPR analyte; also called cynomolgus TIGIT protein; not shown: His tag
Description: SPR (Biacore T200), antibody captured, His-tagged TIGIT analyte.

The target of experiment [2] is T2, His-tagged human TIGIT (human, UniProt Q495A1 22-141).
T2 construct: SPR analyte; also called human TIGIT protein; not shown: His tag
T2 sequence: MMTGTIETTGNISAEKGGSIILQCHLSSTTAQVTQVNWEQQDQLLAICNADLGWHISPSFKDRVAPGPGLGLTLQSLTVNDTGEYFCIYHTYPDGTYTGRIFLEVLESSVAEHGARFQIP
Described as above.

For experiment [3], the target named is T3, human TIGIT expressed on CHO-K1 cells (human, UniProt Q495A1 22-244).
T3 construct: whole, on cells; also called human TIGIT-CHO-K1 cells; human TIGIT over-expressing cell line
T3 sequence (looked up): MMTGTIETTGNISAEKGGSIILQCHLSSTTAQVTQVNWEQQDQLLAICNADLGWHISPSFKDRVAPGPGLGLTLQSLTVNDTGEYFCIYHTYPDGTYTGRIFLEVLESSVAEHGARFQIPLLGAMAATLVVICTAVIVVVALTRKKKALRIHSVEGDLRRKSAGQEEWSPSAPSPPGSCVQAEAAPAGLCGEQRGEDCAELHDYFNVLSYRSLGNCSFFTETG
Description: flow cytometry competition: biotinylated CD155-Fc on human TIGIT-CHO-K1 cells. (In general: A flow cytometer gives signals particle by particle.)

The target of experiment [4] is T2, His-tagged human TIGIT. Nature of the experiment: SPR experiment 2, IgG from HEK293 supernatant captured.
Experiment [5] has as its target T4, cynomolgus TIGIT expressed on CHO-K1 cells (cynomolgus, UniProt A0A7N9I9V4 89-312).
T4 construct: whole, on cells; also called cynomolgus TIGIT over-expressing cell line
Description: flow cytometry on TIGIT over-expressing CHO-K1 cells.

Experiment [6] concerns the target T3, human TIGIT expressed on CHO-K1 cells. Description: flow cytometry on CHO-K1 cells expressing human TIGIT.
In experiment [7] the target is T4, cynomolgus TIGIT expressed on CHO-K1 …. Nature of the experiment: flow cytometry on CHO-K1 cells expressing cynomolgus TIGIT.
For experiment [8], the target named is T5, TIGIT on TIGIT-over expressing NFAT-Luc/Jurkat effector cells (GenScript reporter cell line) (UniProt Q495A1 22-244, limits assumed).
T5 sequence (looked up): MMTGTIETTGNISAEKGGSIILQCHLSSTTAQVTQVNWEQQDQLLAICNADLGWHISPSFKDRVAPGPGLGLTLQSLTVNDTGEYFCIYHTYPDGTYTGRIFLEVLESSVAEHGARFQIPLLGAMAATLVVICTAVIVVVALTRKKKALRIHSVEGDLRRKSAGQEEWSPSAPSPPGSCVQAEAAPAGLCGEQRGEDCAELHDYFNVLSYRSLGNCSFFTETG
Description: cell-based or functional assay.

T1 sequence (A0A7N9I9V4 entry or part of it): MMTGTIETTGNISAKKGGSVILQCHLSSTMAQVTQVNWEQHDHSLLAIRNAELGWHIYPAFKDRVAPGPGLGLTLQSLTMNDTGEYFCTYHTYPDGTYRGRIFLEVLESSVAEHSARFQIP
T4 sequence (A0A7N9I9V4 entry or part of it): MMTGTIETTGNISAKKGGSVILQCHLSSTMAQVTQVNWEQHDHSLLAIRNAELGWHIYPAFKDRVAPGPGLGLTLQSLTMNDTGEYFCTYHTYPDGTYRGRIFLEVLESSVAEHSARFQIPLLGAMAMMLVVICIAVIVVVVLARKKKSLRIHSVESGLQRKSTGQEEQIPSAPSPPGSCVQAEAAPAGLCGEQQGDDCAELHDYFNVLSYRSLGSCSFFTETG

B1: huTIGIT-6-4 (antibody, human IgG1, kappa, V domains shown)
VH: QVQLVQSGAEVKKPGASVKVSCKASGYTFTENAMHWVRQAPGQRLEWIGGINPNNAGTSYSQKFQGRATLTVDTSASTAYMELSSLRSEDTAVYYCTRSSYYRYDLDYWGQGTTVTVSS
VL: DIQMTQSPSSLSASVGDRVTITCQASQDIKTALAWYQQKPGKAPKLLIYSASYRYTGVPSRFSGSGSGTDFTFTISSLQPEDIATYYCHQHYTTPWTFGGGTKLEIKR
notes: Humanized IgG; also called 6VH6.M7 + 6VL1.M1
Consider B1, for which, in experiment [1], the dissociation constant (Kd) (as a rule, the concentration at which binding is half-saturated) came to 260 nM; the koff (as a rule, the rate constant with which the complex falls apart) turned out to be 0.013 s⁻¹; the association rate constant (kon) (commonly the rate constant with which the complex forms) worked out at 47000 M⁻¹ s⁻¹. In addition, in the experiment with His-tagged human TIGIT [2], binding was characterised by a dissociation constant (Kd) of 0.58 nM, the koff turned out to be 0.00019 s⁻¹ and the kon was 330000 M⁻¹ s⁻¹. The half-inhibitory concentration (IC50) (usually the concentration needed to halve the response being measured) in experiment [3] was found to be 1.17 nM. Further, in the experiment with His-tagged human TIGIT [4], the affinity, expressed as Kd, was 0.75 nM; the koff was 0.00023 s⁻¹; the on-rate constant (kon) was 300000 M⁻¹ s⁻¹. In addition, the “fold EC50 on cynomolgus against human TIGIT cell line” value in experiment [5] is over 10 fold. The midpoint of the response in experiment [6], the EC50, lay at 1.02 nM. For the same molecule, in experiment [7], the concentration for a half-maximal effect (EC50) (usually the concentration needed to bring the measured effect to its halfway point) amounted to 16.7 nM. Besides, in experiment [8], the “Bottom (RLU)” value was 46800 RLU, the “EC50” value amounted to 14.8 nM and the “Top (RLU)” value came out at 128000 RLU.
